Assay results reported in PMC2860377.

Tested on: CSCC[C@H](N)C(=O)Nc1ccc2c(C)cc(=O)oc2c1
Assay: purified protein
Details: Fe(II) form, 10 μM FeCl2

Substance: MtMetAP1a (Mycobacterium tuberculosis H37Rv)
- Km: 161 µM
